From patent publication US20180318418A1 (UNIQUEST, published 2018)

Experiments:
Test in all cases: dot blot, peptide on PVDF membrane
[1] = biological target: T1, peptide 06/08 (BARF1 104-120) (Epstein-Barr virus)
T1 construct: Spotted on PVDF membrane for dot blot; also called 06/08104-120
T1 peptide: CRMKLGETEVTKQEHLS

peptide 08/08-2 = biological target: T2, peptide 08/08-2 (Epstein-Barr virus)
T2 construct: 8-mer derived from 08/08 (BARF1 27-40)
T2 peptide: TSYWRRVS

[2] = biological target: T3, peptide 05/08 (BARF1 201-221) (Epstein-Barr virus)
T3 construct: Spotted on PVDF membrane for dot blot; also called 05/08201-221
T3 peptide: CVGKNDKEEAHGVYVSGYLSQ

peptide 08/08-2′ = biological target: T4, peptide 08/08-2′ (Epstein-Barr virus)
T4 construct: 7-mer derived from 08/08′ (BARF1 28-38)
T4 peptide: TSYWRRV

Measured: binding result

B1: anti-BARF1 3D4 monoclonal antibody (antibody, V domains shown)
VH: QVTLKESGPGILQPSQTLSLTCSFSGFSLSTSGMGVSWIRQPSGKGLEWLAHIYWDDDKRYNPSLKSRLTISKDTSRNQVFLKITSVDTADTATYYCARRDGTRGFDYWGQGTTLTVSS
VL: QIVLTQSPAIMSASLGERVTMTCTATSSVSSSYLHWYQQKPGSSPKLWIYSTSNLASGVPARFSGSGSGTSYSLTISSMEAEDAATYYCHQYHRSPPWTFGGGTKLEIK
notes: also called 3D4 mAb; clone 3D4
no binding (tested: about 10 µg/spot): all assays above
